Data reported in publication PMC3985465.

Target: L′LKAAμ thiopeptide (thioleucine-Leu-Lys-Ala-Ala-7-methoxycoumarin-4-ylalanine)
Experiment: stopped-flow fluorescence kinetics
Settings: other: stopped-flow fluorescence kinetics (global fit to a three-step scheme)

B1: Papain (crude, from papaya latex) (protein)
chain: IPEYVDWRQKGAVTPVKNQGSCGSCWAFSAVVTIEGIIKIRTGNLNEYSEQELLDCDRRSYGCNGGYPWSALQLVAQYGIHYRNTYPYEGVQRYCRSREKGPYAAKTDGVRQVQPYNEGALLYSIANQPVSVVLEAAGKDFQLYRGGIFVGPCGNKVDHAVAAVGYGPNYILIKNSWGTGWGENGYIRIKRGTGNSYGVCGLYTSSFYPVKN
  KS (enzyme-substrate complex, first step of the three-step scheme): KS = k1/k–1 = 921 μM
